# Test results published in patent publication US20240360176A1 (MARSHALL UNIVERSITY RESEARCH, published 2024).
# Molecular target: Src kinase (human, endogenous in the HCC cell lines HEP3B and SNU475) (human, UniProt P12931 2-536, phosphorylation read out with a polyclonal antibody to Tyr419 of Src kinase)
# Test: cell-based or functional assay
binder,measurement,value
pNaKtide (peptide) peptide: not shown,"cell proliferation (MTT assay), IC50, Hep3 cells",62.5 µM
same,"cell proliferation (MTT assay), IC50, SNU475 cells",6 µM
